The chains are these.
B1: ATXN2 peptide 913-928 (Ataxin-2), 16-mer library wild type / PABPC1 PABC (PABPC1 PABC domain, residues 544-623) (parent complex)
chain 1: TLNPNAKEFNPRSFSQ
chain 2: PLTASMLASAPPQEQKQMLGERLFPLIQAMHPTLAGKITGMLLEIDNSELLHMLESPESLRSKVDEAVAVLQAHQAKEAA
B2: CBL peptide 540-555 (E3 ubiquitin-protein ligase CBL), 16-mer library wild type / YES SH3 (YES1 SH3 domain, residues 90-152) (parent complex)
chain 1: RDLPPPPPPDRPYSVG
chain 2: not shown

The first assay covers variants of B1. Nature of the assay: proteomic peptide phage display deep mutational scan (ProP-PD DMS): M13 P8 16-mer library selected against immobilised GST-tagged bait for four days (rounds), NGS of the eluted pools per day and pseudo-replica; bait immobilised on MaxiSorp plates (10 µg), library pre-cleared on GST, 2 h binding at 4 °C, five washes; one round per day, days 1-4; value from days 2 and 3.
As for chain 1 TLNPTAKEFNPRSFSQ [chain 1 N5T], the screen value was 0.00242 average fractional NGS count over selection days 2 and 3 (reads of this peptide / all reads for the bait, averaged over ….
On the same count and under the same terms, the value for chain 1 TLNPFAKEFNPRSFSQ [chain 1 N5F] was 0.000799 average fractional NGS count over selection days 2 and 3 (reads of this peptide / all reads for the bait, averaged over …; that for chain 1 TLNPHAKEFNPRSFSQ [chain 1 N5H] was 0.00507 average fractional NGS count over selection days 2 and 3 (reads of this peptide / all reads for the bait, averaged over …; that for chain 1 TLNPKAKEFNPRSFSQ [chain 1 N5K] was 0.00157 average fractional NGS count over selection days 2 and 3 (reads of this peptide / all reads for the bait, averaged over ….
Still for that read-out and setting: under chain 1 TLNPQAKEFNPRSFSQ [chain 1 N5Q] stands 0.00052 average fractional NGS count over selection days 2 and 3 (reads of this peptide / all reads for the bait, averaged over ….
The same measure, in the same setting: under chain 1 TLNPLAKEFNPRSFSQ [chain 1 N5L] stands 0.00771 average fractional NGS count over selection days 2 and 3 (reads of this peptide / all reads for the bait, averaged over …; under chain 1 TLNPNAKEFPPRSFSQ [chain 1 N10P], 0.000829 average fractional NGS count over selection days 2 and 3 (reads of this peptide / all reads for the bait, averaged over ….
Take chain 1 TLNPNAKEFRPRSFSQ [chain 1 N10R]: the screen value is 0.000511 average fractional NGS count over selection days 2 and 3 (reads of this peptide / all reads for the bait, averaged over ….
On the same count and under the same terms, the value for chain 1 TLNPNAKEFAPRSFSQ [chain 1 N10A] was 0.000525 average fractional NGS count over selection days 2 and 3 (reads of this peptide / all reads for the bait, averaged over ….
The same measure, in the same setting: under chain 1 TLNPNAKEFNPRLFSQ [chain 1 S13L] stands 0.0013 average fractional NGS count over selection days 2 and 3 (reads of this peptide / all reads for the bait, averaged over …; under chain 1 TLNPNAKEFNPRWFSQ [chain 1 S13W], 0.000472 average fractional NGS count over selection days 2 and 3 (reads of this peptide / all reads for the bait, averaged over ….
As to chain 1 TLNPNAKEFNPRYFSQ [chain 1 S13Y], the screen value is 0.00087 average fractional NGS count over selection days 2 and 3 (reads of this peptide / all reads for the bait, averaged over ….
The same measure, in the same setting: the value for chain 1 TLNPNAKEFNPRAFSQ [chain 1 S13A] was 0.00421 average fractional NGS count over selection days 2 and 3 (reads of this peptide / all reads for the bait, averaged over ….
On the same count and under the same terms, the value for chain 1 TLNPNAKEFNPRPFSQ [chain 1 S13P] was 0.0016 average fractional NGS count over selection days 2 and 3 (reads of this peptide / all reads for the bait, averaged over …; that for chain 1 TLNPNAVEFNPRSFSQ [chain 1 K7V] was 0.000726 average fractional NGS count over selection days 2 and 3 (reads of this peptide / all reads for the bait, averaged over ….
For chain 1 TLNPNATEFNPRSFSQ [chain 1 K7T], the screen value is 0.000636 average fractional NGS count over selection days 2 and 3 (reads of this peptide / all reads for the bait, averaged over ….
Consider chain 1 TLNPNASEFNPRSFSQ [chain 1 K7S], for which the screen value was 0.00126 average fractional NGS count over selection days 2 and 3 (reads of this peptide / all reads for the bait, averaged over ….
chain 1 TLNPNAPEFNPRSFSQ [chain 1 K7P]: the screen value was 0.000615 average fractional NGS count over selection days 2 and 3 (reads of this peptide / all reads for the bait, averaged over ….
Consider chain 1 TLNPNAIEFNPRSFSQ [chain 1 K7I], for which the screen value is 0.000344 average fractional NGS count over selection days 2 and 3 (reads of this peptide / all reads for the bait, averaged over ….
As to chain 1 TLNPNAFEFNPRSFSQ [chain 1 K7F], the screen value is 0.00539 average fractional NGS count over selection days 2 and 3 (reads of this peptide / all reads for the bait, averaged over ….
Take chain 1 TLNPNAKEFNPRSFIQ [chain 1 S15I]: the screen value was 0.000409 average fractional NGS count over selection days 2 and 3 (reads of this peptide / all reads for the bait, averaged over ….
The same measure, in the same setting: the value for chain 1 TLNPNAKEFNPRSFHQ [chain 1 S15H] was 0.000448 average fractional NGS count over selection days 2 and 3 (reads of this peptide / all reads for the bait, averaged over ….
Regarding chain 1 TLNPNAKEFNPRSFPQ [chain 1 S15P], the screen value was 0.012 average fractional NGS count over selection days 2 and 3 (reads of this peptide / all reads for the bait, averaged over ….
On the same count and under the same terms, under chain 1 TLNPNVKEFNPRSFSQ [chain 1 A6V] stands 0.00065 average fractional NGS count over selection days 2 and 3 (reads of this peptide / all reads for the bait, averaged over ….
Still for that read-out and setting: under chain 1 TLNPNAKAFNPRSFSQ [chain 1 E8A] stands 0.000246 average fractional NGS count over selection days 2 and 3 (reads of this peptide / all reads for the bait, averaged over …; under chain 1 VLNPNAKEFNPRSFSQ [chain 1 T1V], 0.000977 average fractional NGS count over selection days 2 and 3 (reads of this peptide / all reads for the bait, averaged over …; under chain 1 KLNPNAKEFNPRSFSQ [chain 1 T1K], 0.00118 average fractional NGS count over selection days 2 and 3 (reads of this peptide / all reads for the bait, averaged over ….
On the same count and under the same terms, the value for chain 1 GLNPNAKEFNPRSFSQ [chain 1 T1G] was 0.00313 average fractional NGS count over selection days 2 and 3 (reads of this peptide / all reads for the bait, averaged over ….
On to chain 1 ALNPNAKEFNPRSFSQ [chain 1 T1A], for which the screen value was 0.00105 average fractional NGS count over selection days 2 and 3 (reads of this peptide / all reads for the bait, averaged over ….
On to chain 1 TLSPNAKEFNPRSFSQ [chain 1 N3S], for which the screen value was 0.0019 average fractional NGS count over selection days 2 and 3 (reads of this peptide / all reads for the bait, averaged over ….
In the case of chain 1 TLNLNAKEFNPRSFSQ [chain 1 P4L], the screen value was 0.000532 average fractional NGS count over selection days 2 and 3 (reads of this peptide / all reads for the bait, averaged over ….
For the variant chain 1 TLNINAKEFNPRSFSQ [chain 1 P4I], the screen value was 0.00226 average fractional NGS count over selection days 2 and 3 (reads of this peptide / all reads for the bait, averaged over ….
On the same count and under the same terms, under chain 1 TLNPNAKEFNNRSFSQ [chain 1 P11N] stands 0.000672 average fractional NGS count over selection days 2 and 3 (reads of this peptide / all reads for the bait, averaged over ….
On the same count and under the same terms, the value for chain 1 TLNPNAKEFNQRSFSQ [chain 1 P11Q] was 0.000241 average fractional NGS count over selection days 2 and 3 (reads of this peptide / all reads for the bait, averaged over …; that for chain 1 TLNPNAKEFNYRSFSQ [chain 1 P11Y] was 0.000724 average fractional NGS count over selection days 2 and 3 (reads of this peptide / all reads for the bait, averaged over …; that for chain 1 TLNPNAKEFNMRSFSQ [chain 1 P11M] was 0.000174 average fractional NGS count over selection days 2 and 3 (reads of this peptide / all reads for the bait, averaged over ….
Same read-out and setting: under chain 1 TLNPNAKEFNWRSFSQ [chain 1 P11W] stands 0.000361 average fractional NGS count over selection days 2 and 3 (reads of this peptide / all reads for the bait, averaged over …; under chain 1 TLNPNAKEFNFRSFSQ [chain 1 P11F], 0.00198 average fractional NGS count over selection days 2 and 3 (reads of this peptide / all reads for the bait, averaged over …; under chain 1 TLNPNAKEFNSRSFSQ [chain 1 P11S], 0.000475 average fractional NGS count over selection days 2 and 3 (reads of this peptide / all reads for the bait, averaged over ….
On to chain 1 TLNPNAKEFNPMSFSQ [chain 1 R12M], for which the screen value is 0.00123 average fractional NGS count over selection days 2 and 3 (reads of this peptide / all reads for the bait, averaged over ….
Consider chain 1 TLNPNAKEFNPNSFSQ [chain 1 R12N], for which the screen value was 0.00143 average fractional NGS count over selection days 2 and 3 (reads of this peptide / all reads for the bait, averaged over ….
chain 1 TLNPNAKEFNPHSFSQ [chain 1 R12H]: the screen value was 0.00563 average fractional NGS count over selection days 2 and 3 (reads of this peptide / all reads for the bait, averaged over ….
On the same count and under the same terms, under chain 1 TLNPNAKEFNPYSFSQ [chain 1 R12Y] stands 0.00157 average fractional NGS count over selection days 2 and 3 (reads of this peptide / all reads for the bait, averaged over …; under chain 1 TLNPNAKEFNPKSFSQ [chain 1 R12K], 0.000537 average fractional NGS count over selection days 2 and 3 (reads of this peptide / all reads for the bait, averaged over ….
As for chain 1 TLNPNAKEFNPRSASQ [chain 1 F14A], the screen value is 0.000336 average fractional NGS count over selection days 2 and 3 (reads of this peptide / all reads for the bait, averaged over ….
For chain 1 TLNPNAKEFNPRSISQ [chain 1 F14I], the screen value was 0.000362 average fractional NGS count over selection days 2 and 3 (reads of this peptide / all reads for the bait, averaged over ….
The same measure, in the same setting: under chain 1 TLNPNAKEFNPRSYSQ [chain 1 F14Y] stands 0.00139 average fractional NGS count over selection days 2 and 3 (reads of this peptide / all reads for the bait, averaged over …; under chain 1 TLNPNAKEFNPRSLSQ [chain 1 F14L], 0.00171 average fractional NGS count over selection days 2 and 3 (reads of this peptide / all reads for the bait, averaged over …; under chain 1 TLNPNAKEFNPRSHSQ [chain 1 F14H], 0.00184 average fractional NGS count over selection days 2 and 3 (reads of this peptide / all reads for the bait, averaged over ….

The variants in the next assay derive from B2. The description is as above.
Regarding chain 1 L3V, the screen value is 0.00179 average fractional NGS count over selection days 2 and 3 (reads of this peptide / all reads for the bait, averaged over ….
The same measure, in the same setting: the value for chain 1 R11I was 0.000246 average fractional NGS count over selection days 2 and 3 (reads of this peptide / all reads for the bait, averaged over ….
Still for that read-out and setting: under chain 1 P8T stands 0.0233 average fractional NGS count over selection days 2 and 3 (reads of this peptide / all reads for the bait, averaged over ….
On the same count and under the same terms, the value for chain 1 P4V was 0.000427 average fractional NGS count over selection days 2 and 3 (reads of this peptide / all reads for the bait, averaged over …; that for chain 1 D10Y was 0.000449 average fractional NGS count over selection days 2 and 3 (reads of this peptide / all reads for the bait, averaged over …; that for chain 1 P12D was 0.00117 average fractional NGS count over selection days 2 and 3 (reads of this peptide / all reads for the bait, averaged over ….
On to chain 1 P12S, for which the screen value is 0.00406 average fractional NGS count over selection days 2 and 3 (reads of this peptide / all reads for the bait, averaged over ….
Same read-out and setting: under chain 1 R1V stands 0.000334 average fractional NGS count over selection days 2 and 3 (reads of this peptide / all reads for the bait, averaged over …; under chain 1 P6K, 0.00059 average fractional NGS count over selection days 2 and 3 (reads of this peptide / all reads for the bait, averaged over ….
